Experiments:
[1] = biological target: murine ITGA11 expressed in CHO cells (murine) (UniProt P61622); test: flow cytometry, 34 nM antibody on CHO cells expressing murine ITGA11
[2] = biological target: human ITGA11 expressed in mouse C2C12 cells (human) (UniProt Q9UKX5); test: flow cytometry, 34 nM antibody on C2C12 cells expressing human ITGA11
human ITGA11 expressed in mouse C2C12 cells (human), sequence (Q9UKX5 23-1188): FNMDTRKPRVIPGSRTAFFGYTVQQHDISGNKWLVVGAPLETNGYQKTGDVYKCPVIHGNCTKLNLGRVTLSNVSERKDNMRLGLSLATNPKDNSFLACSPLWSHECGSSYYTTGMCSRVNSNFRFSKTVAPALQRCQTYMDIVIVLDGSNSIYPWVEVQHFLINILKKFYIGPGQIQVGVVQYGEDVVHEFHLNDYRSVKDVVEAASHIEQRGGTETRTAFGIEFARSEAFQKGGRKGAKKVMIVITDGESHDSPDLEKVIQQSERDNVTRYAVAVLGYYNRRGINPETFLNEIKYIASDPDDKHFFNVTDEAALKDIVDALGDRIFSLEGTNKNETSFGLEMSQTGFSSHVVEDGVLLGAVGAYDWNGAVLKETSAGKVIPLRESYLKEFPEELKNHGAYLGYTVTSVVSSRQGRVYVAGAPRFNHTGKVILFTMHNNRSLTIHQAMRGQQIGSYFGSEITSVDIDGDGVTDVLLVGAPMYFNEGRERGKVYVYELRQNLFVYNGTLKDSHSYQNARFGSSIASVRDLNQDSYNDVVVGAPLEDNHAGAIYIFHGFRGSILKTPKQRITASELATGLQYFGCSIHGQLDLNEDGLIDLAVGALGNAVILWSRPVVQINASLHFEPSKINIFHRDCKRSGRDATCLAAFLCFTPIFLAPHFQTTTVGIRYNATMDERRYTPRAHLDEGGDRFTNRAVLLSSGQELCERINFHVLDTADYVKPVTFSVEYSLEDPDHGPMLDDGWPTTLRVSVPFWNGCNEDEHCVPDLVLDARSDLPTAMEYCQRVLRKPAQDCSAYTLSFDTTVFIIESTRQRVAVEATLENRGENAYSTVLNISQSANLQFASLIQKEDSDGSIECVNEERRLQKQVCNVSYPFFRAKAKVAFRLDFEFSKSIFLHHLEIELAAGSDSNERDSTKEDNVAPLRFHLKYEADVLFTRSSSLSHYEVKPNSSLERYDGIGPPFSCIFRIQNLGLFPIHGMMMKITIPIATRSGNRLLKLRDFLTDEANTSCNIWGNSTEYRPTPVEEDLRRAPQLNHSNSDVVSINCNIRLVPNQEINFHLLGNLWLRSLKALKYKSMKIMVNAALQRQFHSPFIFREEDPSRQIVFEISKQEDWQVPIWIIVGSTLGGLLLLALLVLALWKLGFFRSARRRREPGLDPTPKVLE

murine ITGA11 expressed in CHO cells (murine), sequence (P61622 23-1188): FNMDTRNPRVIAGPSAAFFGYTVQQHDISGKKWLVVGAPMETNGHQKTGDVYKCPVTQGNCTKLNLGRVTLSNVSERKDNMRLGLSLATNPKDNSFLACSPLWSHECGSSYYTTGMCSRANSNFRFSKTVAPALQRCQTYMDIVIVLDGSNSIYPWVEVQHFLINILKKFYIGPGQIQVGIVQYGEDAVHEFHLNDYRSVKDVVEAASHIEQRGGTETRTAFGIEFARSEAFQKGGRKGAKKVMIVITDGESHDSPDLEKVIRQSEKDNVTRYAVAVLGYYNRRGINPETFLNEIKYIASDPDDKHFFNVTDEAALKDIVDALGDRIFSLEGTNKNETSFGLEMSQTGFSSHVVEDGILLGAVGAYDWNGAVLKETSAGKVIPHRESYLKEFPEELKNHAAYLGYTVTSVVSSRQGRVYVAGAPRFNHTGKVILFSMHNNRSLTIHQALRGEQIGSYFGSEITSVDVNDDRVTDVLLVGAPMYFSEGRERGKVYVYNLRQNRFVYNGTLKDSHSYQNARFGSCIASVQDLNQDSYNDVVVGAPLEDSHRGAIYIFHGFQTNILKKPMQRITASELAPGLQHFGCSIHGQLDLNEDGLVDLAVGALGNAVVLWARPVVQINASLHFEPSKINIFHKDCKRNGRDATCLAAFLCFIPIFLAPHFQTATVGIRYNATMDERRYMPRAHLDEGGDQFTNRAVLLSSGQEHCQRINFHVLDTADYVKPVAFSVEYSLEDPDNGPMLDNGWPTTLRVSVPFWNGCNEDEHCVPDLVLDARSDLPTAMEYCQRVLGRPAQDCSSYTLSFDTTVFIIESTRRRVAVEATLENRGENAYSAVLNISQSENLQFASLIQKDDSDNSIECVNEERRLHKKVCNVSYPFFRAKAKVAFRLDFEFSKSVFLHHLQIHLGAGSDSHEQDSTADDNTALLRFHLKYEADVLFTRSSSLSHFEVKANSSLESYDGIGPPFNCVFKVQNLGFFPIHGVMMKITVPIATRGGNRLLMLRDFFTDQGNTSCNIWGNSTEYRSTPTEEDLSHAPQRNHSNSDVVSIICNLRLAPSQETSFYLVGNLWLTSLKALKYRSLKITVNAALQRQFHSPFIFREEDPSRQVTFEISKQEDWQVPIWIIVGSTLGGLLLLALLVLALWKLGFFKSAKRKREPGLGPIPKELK

Question: Which results are given for Control IgG4 (antibody)?
Answer: MFI [1]: 513 MFI; MFI [2]: 557 MFI
